Patent US20240360228A1 (BIOLEGEND, published 2024)

Columns and labels:
[1] = molecular target: human chemokine (C-C motif) receptor 8 (CCR8) (human) (UniProt P51685); assay: flow cytometry, human PBMC, CD3+ gate; % cells stained by PE-L263G8 after isotype control block
[2] = molecular target: human chemokine (C-C motif) receptor 8 (CCR8) (human) (UniProt P51685); assay: flow cytometry, human PBMC, CD3+ gate; % cells stained by PE-433H after isotype control block
[3] = molecular target: T1, human chemokine (C-C motif) receptor 8 (CCR8) (human, UniProt P51685 1-355); assay: flow cytometry blocking, human PBMC, CD3+ gate; % cells stained by competitor PE-AB15 after block
T1 construct: also called hCCR8
T1 sequence (P51685 whole entry): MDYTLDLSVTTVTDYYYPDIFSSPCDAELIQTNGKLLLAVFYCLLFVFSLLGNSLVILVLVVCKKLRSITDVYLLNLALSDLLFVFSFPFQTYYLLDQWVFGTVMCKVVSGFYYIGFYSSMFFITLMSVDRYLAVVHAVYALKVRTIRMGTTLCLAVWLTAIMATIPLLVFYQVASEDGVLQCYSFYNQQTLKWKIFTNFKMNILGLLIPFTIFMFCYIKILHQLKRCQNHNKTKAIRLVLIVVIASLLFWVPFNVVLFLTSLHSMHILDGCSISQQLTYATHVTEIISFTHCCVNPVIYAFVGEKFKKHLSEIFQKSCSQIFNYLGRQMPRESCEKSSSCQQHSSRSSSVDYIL
Experimental: (§1) For blocking studies, 100 μL of the cell suspension were incubated with 10 μg purified isotype control, AB1, AB2, AB3, AB4, AB5, AB8, AB9, AB10, AB11, AB12, AB13, AB14, AB15, and Commercial ABI antibodies, or isotype control, as blocking agents.
(§2) After incubation with the blocking agent, the cells were incubated with 0.25 μg of the indicated PE-conjugated antibody plus anti-human CD4 APC or anti-human CD3 for another 15 minutes in the dark and then washed 2 times with Cell Staining Buffer, and acquired in a FACSCanto II flow cytometer (BD Biosciences); the data was analyzed using FCS Express (De Novo Software); MFI correspond to the CCR8+ CD4+ lymphocytes or CCR8+ CD3+ lymphocytes.

[4] = molecular target: T1, human chemokine (C-C motif) receptor 8 …; assay: flow cytometry blocking, human PBMC, CD3+ gate; competitor PE-AB6
Experimental: as §1, §2
(§3) Percentage original MFI was calculated by dividing the MFI of samples blocked with AB1, AB2, AB3, AB4, AB5, AB6, AB7, AB8, AB9, AB10, AB11, AB12, AB13, AB14, AB15, and Commercial ABI antibodies, by the MFI of samples blocked with the corresponding isotype control. This value was subtracted from 100 to get a blocking percentage. The formula is shown below: […]

[5] = molecular target: T1, human chemokine (C-C motif) receptor 8 …; assay: flow cytometry blocking, human PBMC, CD3+ gate; % cells stained by competitor PE-AB13 after block
Experimental: as §1, §2

[6] = molecular target: T1, human chemokine (C-C motif) receptor 8 …; assay: flow cytometry blocking, human PBMC, CD3+ gate; competitor PE-AB14
Experimental: as §1, §2, §3

[7] = molecular target: T1, human chemokine (C-C motif) receptor 8 …; assay: flow cytometry blocking, human PBMC, CD3+ gate; competitor PE-AB8
Experimental: as §1, §2, §3

[8] = molecular target: T1, human chemokine (C-C motif) receptor 8 …; assay: flow cytometry blocking, human PBMC, CD3+ gate; competitor PE-AB12
Experimental: as §1, §2, §3

[9] = molecular target: T1, human chemokine (C-C motif) receptor 8 …; assay: flow cytometry blocking, human PBMC, CD3+ gate; competitor PE-433H
[10] = molecular target: T1, human chemokine (C-C motif) receptor 8 …; assay: flow cytometry blocking, human PBMC, CD3+ gate; % cells stained by competitor PE-AB7 after block
Experimental: as §1, §2

[11] = molecular target: T1, human chemokine (C-C motif) receptor 8 …; assay: flow cytometry blocking, human PBMC, CD3+ gate; % cells stained by competitor PE-AB10 after block
Experimental: as §1, §2

[12] = molecular target: T1, human chemokine (C-C motif) receptor 8 …; assay: flow cytometry blocking, human PBMC, CD3+ gate; % cells stained by competitor PE-AB6 after block
Experimental: as §1, §2

[13] = molecular target: T1, human chemokine (C-C motif) receptor 8 …; assay: flow cytometry blocking, human PBMC, CD3+ gate; % cells stained by competitor PE-AB8 after block
Experimental: as §1, §2

[14] = molecular target: T1, human chemokine (C-C motif) receptor 8 …; assay: flow cytometry blocking, human PBMC, CD3+ gate; competitor PE-AB13
Experimental: as §1, §2, §3

[15] = molecular target: T1, human chemokine (C-C motif) receptor 8 …; assay: flow cytometry blocking, human PBMC, CD3+ gate; % cells stained by competitor PE-AB14 after block
Experimental: as §1, §2

[16] = molecular target: T1, human chemokine (C-C motif) receptor 8 …; assay: flow cytometry blocking, human PBMC, CD3+ gate; % cells stained by competitor PE-AB5 after block
Experimental: as §1, §2

[17] = molecular target: T1, human chemokine (C-C motif) receptor 8 …; assay: flow cytometry blocking, human PBMC, CD3+ gate; % cells stained by competitor PE-AB11 after block
Experimental: as §1, §2

[18] = molecular target: T1, human chemokine (C-C motif) receptor 8 …; assay: flow cytometry blocking, human PBMC, CD3+ gate; % cells stained by competitor PE-433H after block
Experimental: as §1, §2

[19] = molecular target: T1, human chemokine (C-C motif) receptor 8 …; assay: flow cytometry blocking, human PBMC, CD3+ gate; % cells stained by competitor PE-AB12 after block
Experimental: as §1, §2

[20] = molecular target: T1, human chemokine (C-C motif) receptor 8 …; assay: flow cytometry blocking, human PBMC, CD3+ gate; competitor PE-L263G8
[21] = molecular target: T1, human chemokine (C-C motif) receptor 8 …; assay: flow cytometry blocking, human PBMC, CD3+ gate; competitor PE-AB11
Experimental: as §1, §2, §3

[22] = molecular target: T1, human chemokine (C-C motif) receptor 8 …; assay: flow cytometry blocking, human PBMC, CD3+ gate; competitor PE-AB7
Experimental: as §1, §2, §3

[23] = molecular target: T1, human chemokine (C-C motif) receptor 8 …; assay: flow cytometry blocking, human PBMC, CD3+ gate; % cells stained by competitor PE-L263G8 after block
Experimental: as §1, §2

[24] = molecular target: T1, human chemokine (C-C motif) receptor 8 …; assay: flow cytometry blocking, human PBMC, CD3+ gate; competitor PE-AB5
Experimental: as §1, §2, §3

[25] = molecular target: T1, human chemokine (C-C motif) receptor 8 …; assay: flow cytometry blocking, human PBMC, CD3+ gate; competitor PE-AB10
Experimental: as §1, §2, §3

[26] = molecular target: T1, human chemokine (C-C motif) receptor 8 …; assay: flow cytometry blocking, human PBMC, CD3+ gate; competitor PE-AB15
Experimental: as §1, §2, §3

Chain of human chemokine (C-C motif) receptor 8 (CCR8) (human) (P51685 whole entry): as above

Row | % Positive cells [3] | % Blocking [4] | % Positive cells [5] | % Blocking [6] | % Blocking [7] | % Blocking [8] | % Blocking [9] | % Positive cells [10] | % Positive cells [11] | % Positive cells [12] | % Positive cells [13] | % Blocking [14] | % Positive cells [15] | % Positive cells [16] | % Positive cells [17] | % Positive cells [18] | % Positive cells [19] | % Blocking [20] | % Blocking [21] | % Blocking [22] | Molecule | other results
1 |  |  |  |  |  |  |  |  |  |  |  |  |  |  |  |  |  |  |  |  | Commercial L263G8 anti-human CCR8 antibody | % Positive cells [1]: 5.87%
2 |  |  |  |  |  |  |  |  |  |  |  |  |  |  |  |  |  |  |  |  | Commercial 433H anti-human CCR8 antibody (antibody, from another filing, V domains shown) VH: EVQLVETGGGLVQPKGSLRLSCAASGFPFNTFAMNWVRQAPGKGLEWLARIRSKSNNYATYYADSVKDRFTISRDDSRRMLYLLMNNVKFEDTAIYYCVRGKENNYGYAMDYWGQGTSVTVSS VL: DIVMTQAAPSVPVTPGESVSISCRSSQSLLHSNGNTYLYWFLQRPGQSPQLLIYRMSNLASGVPDRFSGSGSGTAFTLRISRVEAEDVGVYYCMQHLEYPFTFGIGTKLELKR | % Positive cells [2]: 7.07%
3 | 0.16% | 2.9% | 0.39% | 98.3% | -4.02% | 97.7% | 47.2% | 8.87% | 0.21% | 8.04% | 8.8% | 94.1% | 0.12% | 8.49% | 0.09% | 3.73% | 0.17% | 92.7% | 98.7% | 2.53% | anti-CCR8 monoclonal antibody AB11 (antibody, V domains shown, Hybridoma monoclonal; also called antibody 11; clone 11) VH: EVQLVESGGGLVQPKGSLKLSCAASGFAFNTYAMNWVRQAPGKGLEWIARLRSKSNFYATYYADSVKDRFTISRDDSQSMLYLQMNNLKTEDTAVYYCVRGRELGPSYAMDYWGQGTSVTVSS VL: DIVMTQAAPSVPVTPGESVSISCRSSKSLLHSNGNTYLYWFLQRPGQSPQLLIYRMSNLASGVPDRFSGSGSGTAFTLRISRVEAEDVGVYYCMQHLEYPYTFGGGTKLEIK | % Positive cells [23]: 0.43%; % Blocking [24]: -2.41%; % Blocking [25]: 96.5%; % Blocking [26]: 97.6%
4 | 3.52% | -4.11% | 4.34% | 39.4% | 25.3% | 20.3% | 6.93% | 6.34% | 6.19% | 8.62% | 6.32% | 34.7% | 4.32% | 8.39% | 6.96% | 6.58% | 6% | 20.3% | 0.85% | 30.3% | anti-CCR8 monoclonal antibody AB13 (antibody, V domains shown, Hybridoma monoclonal; also called antibody 13; clone 13) VH: EVQLVETGGGLVQPKGSLKLSCAASGFTFNAYAMNWVRQAPGKGLEWVARIRTKSNNYATYYADSVKDRFTISRDDSQTMLYLQMNNLKTEDTAMYYCVRDRATVTTGRAMDYWGQGTSVTVSS VL: DIVMTQAAPSLPVTPGESVSISCRSSKSLLHSNGNTYLYWFLQRAGQSPQLLIYRMSNLASGVPDRFSGSGSGTAFTLRISRVEAEDVGVYYCMQHLEYPFTFGSGTKLEIK | % Positive cells [23]: 4.68%; % Blocking [24]: -1.21%; % Blocking [25]: -2.65%; % Blocking [26]: 46.5%
